Laboratory results reported in patent publication US20230203129A1 (BRACCO IMAGING S P A, published 2023).

Tests used:
Test in all cases: ELISA during and after library selection
human serum albumin = biological target: T1, human serum albumin (human, UniProt P02768 25-609)
T1 construct: also called HSA

bovine serum albumin = biological target: T2, bovine serum albumin (bovine, UniProt P02769 25-607)
T2 construct: also called BSA

murine serum albumin = biological target: T3, murine serum albumin (murine, UniProt P07724 25-608)
T3 construct: also called MSA; mouse serum albumin

Measured: binding result

T2 sequence (P02769 25-607 limits assumed): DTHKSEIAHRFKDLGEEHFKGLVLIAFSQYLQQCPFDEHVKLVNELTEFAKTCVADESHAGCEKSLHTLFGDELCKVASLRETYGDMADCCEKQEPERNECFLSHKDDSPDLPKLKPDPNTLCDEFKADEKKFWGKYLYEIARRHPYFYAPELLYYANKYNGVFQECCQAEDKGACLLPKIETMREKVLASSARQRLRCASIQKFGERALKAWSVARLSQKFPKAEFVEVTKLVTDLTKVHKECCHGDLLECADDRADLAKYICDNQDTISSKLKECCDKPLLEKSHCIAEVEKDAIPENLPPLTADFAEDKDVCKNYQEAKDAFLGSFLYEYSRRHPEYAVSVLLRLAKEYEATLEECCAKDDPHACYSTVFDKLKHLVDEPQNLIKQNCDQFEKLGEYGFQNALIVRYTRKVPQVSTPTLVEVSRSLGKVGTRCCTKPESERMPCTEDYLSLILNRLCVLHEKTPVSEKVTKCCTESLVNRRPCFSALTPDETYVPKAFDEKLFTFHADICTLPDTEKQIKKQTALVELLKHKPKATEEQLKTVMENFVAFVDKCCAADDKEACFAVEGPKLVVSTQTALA
T1 sequence (P02768 25-609 limits assumed): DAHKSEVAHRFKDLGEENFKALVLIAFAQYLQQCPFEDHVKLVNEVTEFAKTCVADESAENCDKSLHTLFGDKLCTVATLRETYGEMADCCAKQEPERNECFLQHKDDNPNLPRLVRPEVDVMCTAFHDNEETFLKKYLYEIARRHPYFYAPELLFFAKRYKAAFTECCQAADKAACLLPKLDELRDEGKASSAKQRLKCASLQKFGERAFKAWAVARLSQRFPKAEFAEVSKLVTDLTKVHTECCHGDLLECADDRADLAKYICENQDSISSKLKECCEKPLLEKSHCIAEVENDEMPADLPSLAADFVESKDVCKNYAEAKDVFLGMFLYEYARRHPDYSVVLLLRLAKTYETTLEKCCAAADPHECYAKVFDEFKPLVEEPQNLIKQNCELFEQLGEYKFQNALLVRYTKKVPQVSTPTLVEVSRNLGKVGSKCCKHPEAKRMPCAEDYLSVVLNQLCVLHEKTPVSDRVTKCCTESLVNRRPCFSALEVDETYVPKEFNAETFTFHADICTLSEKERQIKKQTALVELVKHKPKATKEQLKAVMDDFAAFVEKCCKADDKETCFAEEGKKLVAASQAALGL

B1: affitin Aff03 (designed binder)
chain: VKVKFGHMGEEKEVDTSKIYAVNRAGKFVHFAYDDNGKFGSGSVPEKDAPKELLDMLARAEREK
no binding: all assays above
